According to patent US20220168434A1, “APPLICATION OF TRANSTHYRETIN IN ENTERING EYE AND PREPARING DROP” (YIZHOU (SHANGHAI) BIOLOGICAL MEDICINE CO, LTD., priority 2019, published 2022):

Assays:
[1] = Protein content in vitreous body during two weeks of eye dropping (ELISA, anti-His tag antibody); format: in vivo, New Zealand big-eared rabbits (Oryctolagus cuniculus); details: New Zealand big-ear rabbits; protein not fused with TTR
Experimental: (§1) The purified TTR protein (at a concentration of 4 μmol/L) prepared in Example 1 after removal of endotoxin and bacteria was subject to treating healthy SD rats (Rattus norregicus) (6 weeks old) and New Zealand big-eared rabbits (Oryctolagus cuniculus) (2 months old, about 2.5 kg) by means of eye dropping, the left eye was the sample eye dropped with the protein, and the right eye was the blank control eye dropped with saline. The protein was administered 1-3 times per day at a dosage of 0.4-0.8 nmol. Two weeks later, the eyeball was removed and separated to obtain the vitreous body sample. It was preliminarily verified by western-blot method (FIG. 7A) that TTR can enter the vitreous cavity from the ocular surface.
(§2) The purified TTR-GFP protein (at a concentration of 4 μmol/L) prepared in Example 2 after removal of endotoxin and bacteria was subject to treating healthy SD rats (Rattus norregicus) (6 weeks old) and New Zealand big-eared rabbits (Oryctolagus cuniculus) (2 months old, about 2.5 kg) by means of eye dropping, the left eye was the sample eye dropped with the protein, and the right eye was the blank control eye dropped with saline. The protein was administered 1-3 times per day at a dosage of 0.4-0.8 nmol. […] The content of TTR-GFP in the vitreous body sample was determined by ELISA with the anti-His tag antibody as the primary antibody (Table 10 and 11). […]

[2] = as above; format: in vivo, SD rats (Rattus norregicus); details: SD rats; protein not fused with TTR
Experimental: as §1, §2

B1: Ovalbumin: Ovalbumin protein (UniProt Accession No.: P01012) not fused with TTR (protein, UniProt P01012 2-386, looked up)
Ovalbumin: GSIGAASMEFCFDVFKELKVHHANENIFYCPIAIMSALAMVYLGAKDSTRTQINKVVRFDKLPGFGDSIEAQCGTSVNVHSSLRDILNQITKPNDVYSFSLASRLYAEERYPILPEYLQCVKELYRGGLEPINFQTAADQARELINSWVESQTNGIIRNVLQPSSVDSQTAMVLVNAIVFKGLWEKAFKDEDTQAMPFRVTEQESKPVQMMYQIGLFRVASMASEKMKILELPFASGTMSMLVLLPDEVSGLEQLESIINFEKLTEWTSSNVMEERKIKVYLPRMKMEEKYNLTSVLMAMGITDVFSSSANLSGISSAESLKISQAVHAAHAEINEAGREVVGSAEAGVDAASVSEEFRADHPFLFCIKHIATNAVLFFGRCVSP
With B1 the “entering the vitreous body after eye dropping (in words)” value [1] was “did not enter” and the “entering the vitreous body after eye dropping (in words)” value [2] was “did not enter”.
